Substitutions are numbered along the chain they refer to.
B1: AbA-CZ (antibody, human IgG1, kappa, V domains shown)
VH: EVQLQESGPGLVKPSQTLSLTCTVSGYSISRDFAWNWIRQPPGKGLEWMGYISYNGNTRYQPSLKSRITISRDTSKNQFFLKLNSVTAADTATYYCVTASRGFPYWGQGTLVTVSS
VL: DIQMTQSPSSMSVSVGDRVTITCHSSQDINSNIGWLQQKPGKSFKGLIYHGTNLDDGVPSRFSGSGSGTDYTLTISSLQPEDFATYYCVQYAQFPWTFGGGTKLEIKR
modifications: synthon CZ on reduced interchain cysteines; average DAR 3.2 per ADC
B2: AbA-KZ (antibody, human IgG1, kappa, V domains shown)
VH: B1 VH
VL: B1 VL
modifications: synthon KZ on reduced interchain cysteines; average DAR 2 per ADC
B3: AbG-ZT (antibody, human IgG1, kappa, V domains shown)
VH: B1 VH with R31N, P41L, N55K, F103L
VL: B1 VL with N30T, S31Y, T52A, A92D, Q93E
modifications: synthon ZT on reduced interchain cysteines; average DAR 1.6 per ADC
B4: AbB-YY (antibody, human IgG1, kappa, V domains shown)
VH: B1 VH with R31N, N55K, Y105W
VL: B1 VL
modifications: synthon YY on reduced interchain cysteines; average DAR 2.2 per ADC
B5: AbA-AAD (antibody, human IgG1, kappa, V domains shown)
VH: B1 VH
VL: B1 VL
modifications: synthon AAD on reduced interchain cysteines; average DAR 3.3 per ADC
B6: AbA-AAA (antibody, human IgG1, kappa, V domains shown)
VH: B1 VH
VL: B1 VL
modifications: synthon AAA on reduced interchain cysteines; average DAR 2 per ADC
B7: AbG-YG (antibody, human IgG1, kappa, V domains shown)
VH: B1 VH with R31N, P41L, N55K, F103L
VL: B1 VL with N30T, S31Y, T52A, A92D, Q93E
modifications: synthon YG on reduced interchain cysteines; average DAR 3.7 per ADC
B8: AbK-XW (antibody, human IgG1, kappa, V domains shown)
VH: B1 VH with Y105W
VL: B1 VL with N30T, S31Y, I33V, T52S, D56H, A92D, Q93D
modifications: synthon XW on reduced interchain cysteines; average DAR 2.8 per ADC
B9: AbB-ZZ (antibody, human IgG1, kappa, V domains shown)
VH: B1 VH with R31N, N55K, Y105W
VL: B1 VL
modifications: synthon ZZ on reduced interchain cysteines; average DAR 1.1 per ADC
B10: AbK-ZZ (antibody, human IgG1, kappa, V domains shown)
VH: B1 VH with Y105W
VL: B1 VL with N30T, S31Y, I33V, T52S, D56H, A92D, Q93D
modifications: synthon ZZ on reduced interchain cysteines; average DAR 1.9 per ADC
B11: AbG-KZ (antibody, human IgG1, kappa, V domains shown)
VH: B1 VH with R31N, P41L, N55K, F103L
VL: B1 VL with N30T, S31Y, T52A, A92D, Q93E
modifications: synthon KZ on reduced interchain cysteines; average DAR 2.7 per ADC
B12: AbG-SR (antibody, human IgG1, kappa, V domains shown)
VH: B1 VH with R31N, P41L, N55K, F103L
VL: B1 VL with N30T, S31Y, T52A, A92D, Q93E
modifications: synthon SR on reduced interchain cysteines; average DAR 2.8 per ADC
B13: AbG-SE (antibody, human IgG1, kappa, V domains shown)
VH: B1 VH with R31N, P41L, N55K, F103L
VL: B1 VL with N30T, S31Y, T52A, A92D, Q93E
modifications: synthon SE on reduced interchain cysteines; average DAR 3.8 per ADC
B14: AbA-YY (antibody, human IgG1, kappa, V domains shown)
VH: B1 VH
VL: B1 VL
modifications: synthon YY on reduced interchain cysteines; average DAR 2.2 per ADC
B15: AbB-XW (antibody, human IgG1, kappa, V domains shown)
VH: B1 VH with R31N, N55K, Y105W
VL: B1 VL
modifications: synthon XW on reduced interchain cysteines; average DAR 3.2 per ADC
B16: AbG-XW (antibody, human IgG1, kappa, V domains shown)
VH: B1 VH with R31N, P41L, N55K, F103L
VL: B1 VL with N30T, S31Y, T52A, A92D, Q93E
modifications: synthon XW on reduced interchain cysteines; average DAR 3.7 per ADC
B17: AbA-XW (antibody, human IgG1, kappa, V domains shown)
VH: B1 VH
VL: B1 VL
modifications: synthon XW on reduced interchain cysteines; average DAR 3.7 per ADC
B18: AbK-SE (antibody, human IgG1, kappa, V domains shown)
VH: B1 VH with Y105W
VL: B1 VL with N30T, S31Y, I33V, T52S, D56H, A92D, Q93D
modifications: synthon SE on reduced interchain cysteines; average DAR 2.7 per ADC
B19: AbA-SR (antibody, human IgG1, kappa, V domains shown)
VH: B1 VH
VL: B1 VL
modifications: synthon SR on reduced interchain cysteines; average DAR 2.3 per ADC
B20: AbA-YG (antibody, human IgG1, kappa, V domains shown)
VH: B1 VH
VL: B1 VL
modifications: synthon YG on reduced interchain cysteines; average DAR 1.9 per ADC
B21: AbB-KZ (antibody, human IgG1, kappa, V domains shown)
VH: B1 VH with R31N, N55K, Y105W
VL: B1 VL
modifications: synthon KZ on reduced interchain cysteines; average DAR 1.9 per ADC
B22: AbK-ZT (antibody, human IgG1, kappa, V domains shown)
VH: B1 VH with Y105W
VL: B1 VL with N30T, S31Y, I33V, T52S, D56H, A92D, Q93D
modifications: synthon ZT on reduced interchain cysteines; average DAR 1.3 per ADC
B23: AbG-ZZ (antibody, human IgG1, kappa, V domains shown)
VH: B1 VH with R31N, P41L, N55K, F103L
VL: B1 VL with N30T, S31Y, T52A, A92D, Q93E
modifications: synthon ZZ on reduced interchain cysteines; average DAR 1.4 per ADC
B24: AbB-ZT (antibody, human IgG1, kappa, V domains shown)
VH: B1 VH with R31N, N55K, Y105W
VL: B1 VL
modifications: synthon ZT on reduced interchain cysteines; average DAR 1.4 per ADC
B25: AbB-CZ (antibody, human IgG1, kappa, V domains shown)
VH: B1 VH with R31N, N55K, Y105W
VL: B1 VL
modifications: synthon CZ on reduced interchain cysteines; average DAR 3.5 per ADC
B26: AbB-YG (antibody, human IgG1, kappa, V domains shown)
VH: B1 VH with R31N, N55K, Y105W
VL: B1 VL
modifications: synthon YG on reduced interchain cysteines; average DAR 1.1 per ADC
B27: AbB-SE (antibody, human IgG1, kappa, V domains shown)
VH: B1 VH with R31N, N55K, Y105W
VL: B1 VL
modifications: synthon SE on reduced interchain cysteines; average DAR 2.2 per ADC
B28: AbK-YG (antibody, human IgG1, kappa, V domains shown)
VH: B1 VH with Y105W
VL: B1 VL with N30T, S31Y, I33V, T52S, D56H, A92D, Q93D
modifications: synthon YG on reduced interchain cysteines; average DAR 0.9 per ADC
B29: AbB-TV (antibody, human IgG1, kappa, V domains shown)
VH: B1 VH with R31N, N55K, Y105W
VL: B1 VL
modifications: synthon TV on reduced interchain cysteines; average DAR 2.3 per ADC
B30: AbB-AAD (antibody, human IgG1, kappa, V domains shown)
VH: B1 VH with R31N, N55K, Y105W
VL: B1 VL
modifications: synthon AAD on reduced interchain cysteines; average DAR 2.7 per ADC
B31: AbB-SR (antibody, human IgG1, kappa, V domains shown)
VH: B1 VH with R31N, N55K, Y105W
VL: B1 VL
modifications: synthon SR on reduced interchain cysteines; average DAR 2.1 per ADC
B32: AbA-SE (antibody, human IgG1, kappa, V domains shown)
VH: B1 VH
VL: B1 VL
modifications: synthon SE on reduced interchain cysteines; average DAR 2.8 per ADC
B33: AbB-TX (antibody, human IgG1, kappa, V domains shown)
VH: B1 VH with R31N, N55K, Y105W
VL: B1 VL
modifications: synthon TX on reduced interchain cysteines; average DAR 2.2 per ADC
B34: AbK-KZ (antibody, human IgG1, kappa, V domains shown)
VH: B1 VH with Y105W
VL: B1 VL with N30T, S31Y, I33V, T52S, D56H, A92D, Q93D
modifications: synthon KZ on reduced interchain cysteines; average DAR 2.3 per ADC
B35: AbK-SR (antibody, human IgG1, kappa, V domains shown)
VH: B1 VH with Y105W
VL: B1 VL with N30T, S31Y, I33V, T52S, D56H, A92D, Q93D
modifications: synthon SR on reduced interchain cysteines; average DAR 2.3 per ADC

The binders below were run against human EGFR (huEGFR) over-expressed on mcl-1-/- mouse embryonic fibroblasts (human, UniProt P00533 25-1210) (assay: cell-based or functional assay).

| Binder | huEGFR+ mcl-1-/- MEF EC50 [nM] |
| --- | --- |
| B1 | 0.3 |
| B2 | 152 |
| B3 | 33 |
| B4 | 51 |
| B5 | 65 |
| B6 | 220 |
| B7 | 1 |
| B8 | 0.6 |
| B9 | 7.4 |
| B10 | 45 |
| B11 | 96 |
| B12 | 7 |
| B13 | 24 |
| B14 | 460 |
| B15 | 0.65 |
| B16 | 19 |
| B17 | 32 |
| B18 | 161 |

| Binder | huEGFR+ mcl-1-/- MEF EC50 [nM] |
| --- | --- |
| B19 | 5.9 |
| B20 | 6.4 |
| B21 | 55 |
| B22 | 0.2 |
| B23 | 68 |
| B24 | 8.9 |
| B25 | 5.9 |
| B26 | 3.3 |
| B27 | 39 |
| B28 | 37 |
| B29 | 2.4 |
| B30 | 4.6 |
| B31 | 7 |
| B32 | 105 |
| B33 | 11 |
| B34 | 224 |
| B35 | 8.9 |

The binders below were run against EGFR on EGFR positive non-small cell lung cancer cells NCI-H1650 (UniProt P00533 25-1210) (assay: cell-based or functional assay).

| Binder | H1650 CTG-3D EC50 [µg/mL] | H1650 GFP Flourescence EC50 [µg/mL] |
| --- | --- | --- |
| B1 | 0.88 | 1.24 |
| B2 | > 40 | 29.3 |
| B3 | 0.1 | 0.08 |
| B4 | 8.6 | 7.73 |
| B5 | 0.79 | 0.36 |
| B6 | 0.65 | 0.98 |
| B7 | 1.24 | 0.63 |
| B8 | > 40 | 8.53 |
| B9 | 0.52 | 0.61 |
| B10 | 0.03 | 0.16 |
| B11 | 38.3 | 38.2 |
| B12 | 1.31 | 1.38 |
| B13 | 0.96 | 0.99 |
| B14 | > 40 | 7.85 |
| B15 | 6.92 | 12.1 |
| B16 | > 40 | > 40 |
| B17 | > 40 | > 40 |
| B18 | 2.67 | 1.68 |

| Binder | H1650 CTG-3D EC50 [µg/mL] | H1650 GFP Flourescence EC50 [µg/mL] |
| --- | --- | --- |
| B19 | 2.12 | 2.22 |
| B20 | 3.8 | 2.84 |
| B21 | 16.5 | 37.7 |
| B22 | 0.05 | 0.12 |
| B23 | 0.47 | 0.44 |
| B24 | 0.26 | 0.64 |
| B25 | 1.27 | 0.88 |
| B26 | 3.28 | 1.55 |
| B27 | 0.59 | 2.18 |
| B28 | 12.3 | 10.4 |
| B29 | 0.86 | 0.74 |
| B30 | 0.16 | 0.59 |
| B31 | 0.62 | 2.1 |
| B32 | 4 | 4.23 |
| B33 | 2.39 | 3.72 |
| B34 | > 40 | > 40 |
| B35 | 1.74 | 1.36 |

Source: patent US20240199745A1, “ANTI-EGFR ANTIBODY DRUG CONJUGATES” (priority 2016, published 2024)
